Read-outs that look alike come from different tables or passages of the source. One block for each molecule: values may come before it. Where a SMILES comes first, the peptide text is derived from it. Where no end group is shown, it is not given here. [ ]: non-standard residue; d: D form. The star is where a group is joined. DOTA = O=C(O)CN1CCN(CC(=O)O)CCN(CC(=O)*)CCN(CC(=O)O)CC1; Met(O2) = CS(=O)(=O)CC[C@H](N)C(=O)O; NS3/CN = chelator carrying 99mTc; 2Thi = N[C@@H](Cc1cccs1)C(=O)O
Tests used:
[1] = Lipophilicity (logP), partition in n-octanol/PBS (pH 7.4); type: physicochemical
Procedure: The partition coefficient was measured for each compound in a biphasic system of n-octanol/PBS (pH 7.4). The biphasic mixture was shaken (vortex, 1 min) and then centrifuged (14,000 rpm, 5 min) before the organic (n-octanol) and aqueous (PBS, pH 7.4) phases were separated. The activity of each phase (corresponding to the content of radiobioconjugate) was determined by measuring γ-radiation, using a well-type NaI(Tl) detector. P was calculated as the ratio of activity in the organic versus aqueous phases (as an average value from at least three independent measurements). Immediately after the γ-radiation measurements, the aqueous phase was analyzed by HPLC (system 2) to determine whether the tested radiobioconjugate existed in the liquid phase in an unchanged form.

[2] = type: in vitro ADME, human
Procedure: Stability tests of 2a–e compounds in CSF and HS were performed similarly to the previous one. The solution (0.1 mL) of isolated 2a–e radiobioconjugate in 0.1 M PBS buffer (pH 7.4), was added to 0.9 mL of CSF or HS and incubated at 37 °C. After specific time intervals (1, 2, 4 and 24 h), a small sample (0.1–0.2 mL) of the mixture was taken, mixed with ethanol (0.3–0.5 mL) and shaken vigorously to precipitate protein components as well as part of the tested radiobioconjugate bound to protein components. The sample was then centrifuged (14,000 rpm, 5 min) and the supernatant separated. The radioactivities of both supernatant and precipitate were measured using the well-type NaI(Tl) detector (Institute of Nuclear Chemistry and Technology, Warsaw, Poland). […]

[3] = target: T1, NK-1 receptors expressed on glioblastoma cells (U373 MG) (Homo sapiens, UniProt P25103); test: Saturation binding studies on U373 MG cells; details: 37 °C, 1.5 h, Scatchard analysis, mean ± SD of three experiments
T1 construct: host or cells: U373 MG (Uppsala) human glioblastoma astrocytoma cells
Procedure: To determine the affinity of selected radiobioconjugates: […] One day before the experiment, 8 × 10^5 cells/well were seeded in six-well plates. To determine total binding, different concentrations of peptides (15.3 pM to 100 nM) were added to the cells and incubated at 37 °C for 1.5 h. Cellular uptake was stopped by aspirating the reaction supernatant, followed by washing twice with 1 mL of cold PBS. Finally, the cells were lysed using 1 M NaOH to detach them from the well plates. To determine nonspecific binding, the cells were incubated with 1000-fold excess of unlabelled peptides. The radioactivities of collected samples with cell pellets and supernatants were measured using Perkin Elmer automatic γ-counter. The specific binding was obtained by subtracting nonspecific binding from total binding. For estimating the receptor density (Bmax) and the dissociation constant (Kd) of the receptor for the studied radiobioconjugates, the Scatchard analysis method was used. Results are means ±SD of three individual experiments.

[4] = target: [177Lu]DOTA-[Thi8,Met(O2)11]Substance P(5-11) 5-11 (Homo sapiens, UniProt P20366, 177Lu-DOTA, Thi8, Met(O2)11); test: radioligand binding
[5] = target: [177Lu]DOTA-Substance P(4-11) 4-11 (Homo sapiens, UniProt P20366, 177Lu-DOTA); test: radioligand binding
[6] = target: [177Lu]DOTA-[Thi8,Met(O2)11]Substance P(1-11) 1-11 (Homo sapiens, UniProt P20366, 177Lu-DOTA, Thi8, Met(O2)11); test: radioligand binding

Molecule: [C-]#[N+]CCCC(=O)N[C@@H](CCCNC(=N)N)C(=O)N1CCC[C@H]1C(=O)N[C@@H](CCCCN)C(=O)N1CCC[C@H]1C(=O)N[C@@H](CCC(N)=O)C(=O)N[C@@H](CCC(N)=O)C(=O)N[C@@H](Cc1ccccc1)C(=O)N[C@@H](Cc1ccccc1)C(=O)NCC(=O)N[C@@H](CC(C)C)C(=O)N[C@@H](CCSC)C(N)=O [1a, [^99mTc]NS3/CN-SP(1–11), metal not drawn]
logP ([1]; n-octanol/PBS pH 7.4, [99mTc]NS3/CN-SP radiobioconjugates, read-out: logP): 0.26 ± 0.05

Molecule: CSCC[C@H](NC(=O)[C@H](CC(C)C)NC(=O)CNC(=O)[C@H](Cc1ccccc1)NC(=O)[C@H](Cc1ccccc1)NC(=O)[C@H](CCC(N)=O)NC(=O)[C@H](CCC(N)=O)NC(=O)[C@@H]1CCCN1C(=O)[C@H](CCCCN)NC(=O)[C@@H]1CCCN1C(=O)[C@H](CCCNC(=N)N)NC(=O)CN1CCN(CC(=O)O)CCN(CC(=O)O)CCN(CC(=O)O)CC1)C(N)=O [2a, [^177Lu]DOTA-SP(1–11), metal not drawn]
logP ([1]; pH 7.4): -5.12 ± 0.06
Enzymatic biomolecule biodegradation in human serum (ITLC) [2]: only partial

Kd [3]: 11.1 ± 2.7 nM
Molecule: CC(C)C[C@H](NC(=O)CNC(=O)[C@H](Cc1cccs1)NC(=O)[C@H](Cc1ccccc1)NC(=O)[C@H](CCC(N)=O)NC(=O)[C@H](CCC(N)=O)NC(=O)[C@@H]1CCCN1C(=O)[C@H](CCCCN)NC(=O)[C@@H]1CCCN1C(=O)[C@H](CCCNC(=N)N)NC(=O)CN1CCN(CC(=O)O)CCN(CC(=O)O)CCN(CC(=O)O)CC1)C(=O)N[C@@H](CCS(C)(=O)=O)C(N)=O [2b, [^177Lu]DOTA-[Thi^8,Met(O2)^11]SP(1–11), metal not drawn]
logP ([1]; pH 7.4): -5.28 ± 0.02
Enzymatic biomolecule biodegradation in human serum (ITLC) [2]: only partial

Kd [3]: 13.3 ± 1.6 nM
Molecule: CSCC[C@H](NC(=O)[C@H](CC(C)C)NC(=O)CNC(=O)[C@H](Cc1ccccc1)NC(=O)[C@H](Cc1ccccc1)NC(=O)[C@H](CCC(N)=O)NC(=O)[C@H](CCC(N)=O)NC(=O)[C@@H]1CCCN1C(=O)CN1CCN(CC(=O)O)CCN(CC(=O)O)CCN(CC(=O)O)CC1)C(N)=O [2c, [^177Lu]DOTA-SP(4–11), metal not drawn]
logP ([1]; pH 7.4): -2.93 ± 0.01
Enzymatic biomolecule biodegradation in human serum (ITLC) [2]: only partial

Molecule: CSCC[C@H](NC(=O)[C@H](CC(C)C)NC(=O)CNC(=O)[C@H](Cc1ccccc1)NC(=O)[C@H](Cc1ccccc1)NC(=O)[C@H](CCC(N)=O)NC(=O)[C@H](CCC(N)=O)NC(=O)CN1CCN(CC(=O)O)CCN(CC(=O)O)CCN(CC(=O)O)CC1)C(N)=O [2d, [^177Lu]DOTA-SP(5–11), metal not drawn] ({DOTA}-QQFFGLM-NH2)
logP ([1]; pH 7.4): -2.68 ± 0.01
Enzymatic biomolecule biodegradation in human serum (ITLC) [2]: virtually all of the radiobiomolecule that was deposited onto the strip was degraded enzymatically

Kd [3]: 48.7 ± 5.1 nM
Molecule: CC(C)C[C@H](NC(=O)CNC(=O)[C@H](Cc1cccs1)NC(=O)[C@H](Cc1ccccc1)NC(=O)[C@H](CCC(N)=O)NC(=O)[C@H](CCC(N)=O)NC(=O)CN1CCN(CC(=O)O)CCN(CC(=O)O)CCN(CC(=O)O)CC1)C(=O)N[C@@H](CCS(C)(=O)=O)C(N)=O [2e, [^177Lu]DOTA-[Thi^8,Met(O2)^11]SP(5–11), metal not drawn] ({DOTA}-QQF[2Thi]GL[Met(O2)]-NH2)
logP ([1]; pH 7.4): -3.94 ± 0.01
Enzymatic biomolecule biodegradation in human serum (ITLC) [2]: virtually all of the radiobiomolecule that was deposited onto the strip was degraded enzymatically

Molecule: [^99mTc]NS3/CN-SP(4–11) ({NS3/CN}-PQQFFGLM; ends and bridges not checked; also: 99mTc complex of NS3/CN chelate; UniProt P20366 61-68, looked up, fragment) [1c, SP(4–11) labelled with technetium-99m via NS3/CN-BFCA]
logP ([1]; pH 7.4): 0.09 ± 0.02

Molecule: [^99mTc]NS3/CN-SP(5–11) ({NS3/CN}-QQFFGLM; ends and bridges not checked; also: 99mTc complex of NS3/CN chelate; UniProt P20366 62-68, looked up, fragment) [1d, SP(5–11) labelled with technetium-99m via NS3/CN-BFCA]
logP ([1]; pH 7.4): 1.14 ± 0.01

Molecule: [^99mTc]NS3/CN-[Thi^8,Met(O2)^11]SP(5–11) [1e]
logP ([1]; pH 7.4): 0.64 ± 0.02

Kd [4]: 48.7 nM
Kd [5]: 13.3 nM
Kd [6]: 11.1 nM
B1: NK-1 receptor (protein)
chain: MDNVLPVDSDLSPNISTNTSEPNQFVQPAWQIVLWAAAYTVIVVTSVVGNVVVMWIILAHKRMRTVTNYFLVNLAFAEASMAAFNTVVNFTYAVHNEWYYGLFYCKFHNFFPIAAVFASIYSMTAVAFDRYMAIIHPLQPRLSATATKVVICVIWVLALLLAFPQGYYSTTETMPSRVVCMIEWPEHPNKIYEKVYHICVTVLIYFLPLLVIGYAYTVVGITLWASEIPGDSSDRYHEQVSAKRKVVKMMIVVVCTFAICWLPFHIFFLLPYINPDLYLKKFIQQVYLAIMWLAMSSTMYNPIIYCCLNDRFRLGFKHAFRCCPFISAGDYEGLEMKSTRYLQTQGSVYKVSRLETTISTVVGAHEEEPEDGPKATPSSLDLTSNCSSRSDSKTMTESFSFSSNVLS

— PMC6222600, “Application of Neurokinin-1 Receptor in Targeted Strategies for Glioma Treatment. Part I: Synthesis and Evaluation of Substance P Fragments Labeled with ^99mTc and ^177Lu as Potential Receptor Radiopharmaceuticals” (Molecules : A Journal of Synthetic Chemistry and Natural …, 2018)
